{"source": "patent US20100143888", "proteins": {"B1": {"name": "Human Rhinovirus serotype 1A 3C Protease (protein)", "chain": "GPEEEFGRSILKNNTCVITTGNGKFTGLGIHDRILIIPTHADPGREVQVNGVHTKVLDSYDLYNRDGVKLEITVIQLDRNEKFRDIRKYIPETEDDYPECNLALSANQDEPTIIKVGDVVSYGNILLSGNQTARMLKYNYPTKSGYCGGVLYKIGQILGIHVGGNGRDGFSAMLLRSYFTDTQ"}}, "target": "T1, MOC-Arg-Ala-Glu-Leu-Gln-Gly-Pro-Tyr-Asp-Lys-DNP-NH2", "T1 chain": "RAELQGPYDK"}
{"protein": "B1", "values": [{"measurement": "Km (fluorescence resonance energy transfer protease activity assay)", "result": "with a Km value of 16.8 µM"}]}
